From the supplement of paper PMC12636428

Each sequence was assayed on Saccharomyces cerevisiae (assay: transcriptional activation domain activity (GFP:mCherry ratio, weighted mean of sorted bins, harmonized to initial dataset scale) (arbitrary fluorescence ratio units); higher = stronger transcriptional activation). Conditions: beta-estradiol 1 µM; induction time 4 h.
In short: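 For this assay, yeast diploids with a GFP reporter carried barcoded protein tiles at URA3, each fused to an estradiol-inducible synthetic transcription factor. Induction was a 1:5 dilution into SC with 1 uM beta-estradiol for 4 hours at 30 °C, followed by sorting into 8 bins by GFP:mCherry ratio and barcode sequencing. Tiles under 50 reads were dropped, and activation activity was calculated as the read-weighted mean of bin median fluorescence, averaged across barcodes and linearly mapped onto the initial dataset scale.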

Sequence	transcriptional activation domain activity
IQAEGLYQCRYRSYGIECIRYIFFFAMFGFLLKSEWYLSSAFFLGCLWHQLAF	25300
IQAYLVNFLSSACLMNFWVTLTFLLGGEPYHYSTYVLLVGWMFIYLILLFGLI	37700
IQDLVFSIIGWFCFGGYTGYNIIQYVNMFGFAEWRRTLPVLYQLMYFNVWMSL	62900
IQEDNEEGERRRRRRKGKAGEETEGEKKEKKRKKNGATKSGKRGKMERNGKLK	28400
IQEEVKAKKKRKSRKGAKEEGEASPAESSESDGEQEKPKKKASRKKKRPKVEG	27600
IQFSLIPLSILSFCINHFGLGCDVWTVSFAHITDVLHITYWVEILYTLCLYFV	40700
IQNEDKFAESKNLSLDEFLKIFNGIYYERLRYDFNVVVIILLLTLFNHCKDFY	52700
IQSGDEGKDRKGREKVEDRSKRSRRRSRSRSKDRSRGKRRRDDHEGTKGGGQA	41100
IQTYEIVGLTSCSLNVVLLPFAFYLVTLCFKTSERSPLLSMLCRLFFLPLTCG	45100
IQVRLTAFDCLFVLKGLTESTLTQYFLSVIRDDPCVYVSHYVARAMLAWLGLA	55600
IRCAKGFKSTDETKIFKTGQGGMKGNMYVTLSWNRWGKLLWATRIITRDFNPV	46000
IRDRFNHGPCKVYILFMNCTYLPMIPGLFRIIEILRYYLRLRWLRCCSAAGPD	60300
IRFTLPTLVFAAVQLARRFKLLEAGGWSEWARKMCSLYKFVHQIIGLLYTRVE	62600
IRGKTLPKYFPRFHMWGHIDADIQLMSKGLITPVCIEMVYGMHPFVVYKLFMF	62100
IRGLLILRYQRGYKDLNHCEPQVIFYDRLCGFLVLGWFLHYFPFFLMSRQLFL	88200
IRGMCPEKPQIREIVYLLRGLIVNRILLMTLKKRWNVQYGLHSTRDPIAVPFH	53200
IRGNMSGSEFHWTCKSLGLCGILVRCLAWYCISKMYVLPTCYRRMYCCEVYKD	49700

Sequence	transcriptional activation domain activity
IRIADMHANFFYKNINYTLSLFIFQIWCHFNSTYLFDYTLLMLFNLLFTSLPV	37100
IRLELGIIEDFFGLTLCMSKYLLYHYVISLKLSACFFAVHGYAPNGLDYPWVL	55000
IRLLFVWIVCTRIVLASRSACGRCYRSYLAMRSRSGWRWVSRRTAAVLVLRWC	61500
IRLLISKHWLPVLFSFRGFMELTTTVPFLLSTYIPNGRYLYVPYFIRSWVLLL	72800
IRLMPFYSSPNVDVAEENLRCYENTAVFLLSNFQYLIVALVYCDGEPYRENIS	41000
IRLVSSEMIRYLKKHDFKDITYYTLYISLMGFSKRYYRQGILMLKCVDIEVIY	74500
IRNHSLPTNLQVKDKIEDLNEIKFFNDFEKLEFFNKYAKVNTNNDVNENNDLW	46800
IRPSTPAATRSTSPPRPRPPRASRSPRPRRTRGRRSSKLRRKATSPPPATAPS	38200
IRQLFGNYVLLYFFPWGFGCGFLPVLFPVQTCRIYHYLLFYFFFLSPFFFSIP	36700
IRRHFNRKYHQCLLVVIVLGVYLAIGLNWGRFYLVCWVLLHFCIVILGPLYFL	53400
IRSSSHLFPISPFYFVFLFWSSFSVFTMLLLPPTIPRSNQFRAFSSFLWFSWI	67000
IRSWGDAVLAHSPLFDHVDGDAACPCSRCCSGVIAWSFWERVIRIVPMHLFSA	64500
IRTLRRSAREVLTVYWVLHGILPFPSIHSLDPYILSRRWSLCLNCLFLYALYF	49700
IRWHIREHQLRVLAKFCADRIGDPYVYCPCIIAKGLVLALIRIVSALLEKPAI	56200
IRYLDHTQLLGEPLLKRTFMGGHIFIPTLIDTALCQSYFSSHILDILRHLTFS	63300
IRYWLLTFFVMDFLPNRELRLLLASWLNTLVNDPILKKHQDGLSIVRKLIKVA	51600
IRYWTWMVWVIIIGSTLAFHVWIAIYSQFDVFTFESELFYLYTTLNFWTCIVF	57100
